Measurements as given in paper PMC9926331 (Journal of Molecular Cell Biology, 2022).

Biological target: GST-TIP60 (human, UniProt Q92993 1-513)
Assay: pull-down

Chain of GST-TIP60 (Q92993 whole entry): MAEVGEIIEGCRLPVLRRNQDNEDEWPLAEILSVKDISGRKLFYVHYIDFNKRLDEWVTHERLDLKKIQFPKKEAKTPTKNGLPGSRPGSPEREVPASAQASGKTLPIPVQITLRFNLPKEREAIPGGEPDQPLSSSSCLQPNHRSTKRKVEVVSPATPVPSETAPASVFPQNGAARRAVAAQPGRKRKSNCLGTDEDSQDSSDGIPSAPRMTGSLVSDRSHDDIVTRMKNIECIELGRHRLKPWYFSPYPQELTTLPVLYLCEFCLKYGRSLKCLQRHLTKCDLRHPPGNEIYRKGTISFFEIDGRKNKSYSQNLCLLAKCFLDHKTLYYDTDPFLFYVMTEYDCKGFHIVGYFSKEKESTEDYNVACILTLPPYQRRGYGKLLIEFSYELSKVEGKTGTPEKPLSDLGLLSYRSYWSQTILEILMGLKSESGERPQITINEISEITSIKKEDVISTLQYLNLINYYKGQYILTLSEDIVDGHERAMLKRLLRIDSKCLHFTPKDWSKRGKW

B1: MBP-Nup62-CT (domain or fragment, human, UniProt P37198 329-522, looked up)
chain: TYAQLESLINKWSLELEDQERHFLQQATQVNAWDRTLIENGEKITSLHREVEKVKLDQKRLDQELDFILSQQKELEDLLSPLEELVKEQSGTIYLQHADEEREKTYKLAENIDAQLKRMAQDLKDIIEHLNTSGAPADTSDPLQQICKILNAHMDSLQWIDQNSALLQRKVEEVTKVCEGRRKEQERSFRITFD
  binding result: binds
